Drawing on a protein production outcome set (Wang et al. 2014), this text covers protein production for 21 sequences.

The data set is described as follows: label from the status in PepcDB records.
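Further: failed if final PepcDB status was selected cloned or expressed and not failed if soluble or beyond.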

Turning to “MNSVVDISWAKLAAFSLILLVPLAINARYRLGIAKDASVSVVRMTLQLVLIGVYLEYLFQLNSLIINLLWLAIMLVVGASSIAGKARLPKKPLMLPLLTGLVCGLFPLLIAITAGLVRPTPLYNAQYMIPLAGMLLGNSLSSNIIALQNLFSAFEERKSEYEAAISLGAAPKYASFPFVQEALRKSLAPTLASMTTMGLVTLPGMMTGQVLGGASPLVAIKYQLVIMLAIFVMMSVSVAITLEMTLSFVQTKEGRVTVKVRPVDGMKRGQ”, the protein production result is given as “failed”.
For the sequence “MNTESVVEFLGNVPLLQKLPSSSLKKIAQVVVPKRYGKGDYVVREDQTWDGCYFILQGEAQVSGPDEEDNRSEFLLKQYDYFGVGLSGNVHSADIVAMSQLTCLVLPRDHCHLLETNSIWQSDTSLDKCSLVERILQLDPLELNIFRGITLPDAPIFGKVFGGQFVGQALAAASKTVDFLKVVHSLHSYFLLVGDIDIPIIYQVHRIRDGNNFATRRVDAVQKGNIIFILLASFQKEQQGFEHQESTMPSVPDPDTLLSLEELRESRITDPHLPRSYRNKVATRNFVPWPIEIRFCEPSNSTNQTKSPPRLNYWFRAKGRLSDDQALHRCVVAFASDLIFCGVGLNPHRRKGVKSAALSLDHAMWFHRPLRADEWLLYVIVSPTAHETRGFVTGQMFNRKGELVVSLTQEALLREARPPKPSGTSKL”, the protein production result was “failed”.
Under “MNTGTAVITGASSGLGLQCARALLRRDASWHVVLAVRDPARGRAAMEELGEPNRCSVLEVDLASVRSVRSFVETVRTTPLPPIRALVCNAGLQVVSGIAFTDDGVEMTFGVNHLGHFALVTGILDWLARPARIVVVSSGTHDPSKHTGMPDPRYTCAADLAHPPTDQNTPAEGRRRYTTSKLCNVLFTYELDRRLDHGEQGVMVNAFDPGLMPGSGLARDYPPILRLAYRLLSPMLRVLPFVHSTRVSGEHLAALAVDPRFAGVTGQYFAGAKAIRSSAESYDRAKALDLWETSERLLAQVT” stands “failed”; under “MNTKALIGILMFLLLITWSSKGFAKTAEATVTVNIRNSPSTSSKVLGVFPKGFKAQVLSSTGGWVKISFDGVVGYVKSDYIKLTKDSSTSNAVKSSTNTRQVVSQMPMATVLKDNARVRSNMSTSSKILKTLKKGSKVYVLARERNGWIKVKTLDGTVGYMAYYLLKMSTSHTTKISSRGGYDREAQVAYNGSLADRILGFAKNLLGIRYRYGGSSPSTGFDCSGFVQYVFRNFGISLERTAADMAATDGVRISYNELRPGDLVFFDTDGGRNYINHVGIYLGGGKYIHASSARGCVTISDLTSKYGTSFMMAKRVIR”, “failed”.
As to “MNTKRNRLLYATFTILVIILGLSSRKFAFALPALLNDYLGDALWALMIFTGFGFLFPKIATKKLAFISLIFCYGIEVSQLYHAEWIDSIRATTLGGLVLGYGFLWSDLVAYTIGVGIGFLFELILWKK”, the protein production result is listed as “failed”.
For “MNTLECLAVAVALAMDAFAVAIATGIRLREVSPRQTFRLAFHFGLFQALMPVAGWTLGLTVRGYIEQWDHWLAFGLLLYIGVRMMREAFEETEENDDRCDPTRGLTLIMLAVATSIDALAVGLSLSVLGIDIVTPAIVIGVVCLLFTATGLHLGRMLSRAESLGRRAALAGGVVLIGIGLRILYEHGVFDTAATLARSVLG”, the protein production result is “failed”.
Under “MNTLEIAKEVFEKEAQAILDLATNLDENFNQAVNLMLNTKGRCIVSGMGKSGHIGAKIAATLASTGTPSFFIHPGEALHGDLGMLTSEDVLIAISNSGETEEILKIIPAIKKREIPLIVMCGKKNSTLVKQGDIFLNIAVEKEACPLQLAPMSSTTATLVMGDALAAALMKVRNFKPDDFALFHPGGSLGRKLLTKVKDLMVSSNLPIVHPDTEFNDLVDVMTSGKLGLCVVLENEKLVGIITDGDLRRALKASDKPRFDFKAKEIMSINPKVVDADAMASEAEGIMLKHKIKEIIVGKEEKVVGIIQLYAIGNV” stands “not failed”; under “MNTSYSQSTLRHNQVLIWLCVLSFFSVLNEMVLNVSLPDIANEFNKLPASANWVNTAFMLTFSIGTALYGKLSDQLGIKNLLLFGIMVNGLGSIIGFVGHSFFPILILARFIQGIGAAAFPALVMVVVARYIPKENRGKAFGLIGSLVAMGEGVGPAIGGMVAHYIHWSYLLLIPTATIITVPFLIKLLKKEERIRGHIDMAGIILMSAGIVFFMLFTTSYRFSFLIISILAFFIFVQHIRKAQDPFVDPELGKNVFFVIGTLCGGLIFGTVAGFVSMVPYMMKDVHHLSTAAIGSGIIFPGTMSVIIFGYIGGLLVDRKGSLYVLTIGSALLSSGFLIAAFFIDAAPWIMTIIVIFVFGGLSFTKTVISTVVSSSLKEKEAGAGMSLLNFTSFLSEGTGIAIVGGLLSIGFLDHRLLPIDVDHSTYLYSNMLILFAGIIVICWLVILNVYKRSRRHG”, “not failed”.
Take “MNTTVEKQQIITSNTEQWKMYSKLEGKEYQIHISKPKQPAPDSGYPVIYVLDGNAFFQTFHEAVKIQSVRAEKTGVSPAIIVGVGYPIEGAFSGEERCYDFTPSVISKDAPLKPDGKPWPKTGGAHNFFTFIEEELKPQIEKNFEIDKGKQTLFGHSLGGLFALHILFTNLNAFQNYFISSPSIWWNNKSVLEKEENLIIELNNAKFETGVFLTVGSLEREHMVVGANELSERLLQVNHDKLKFKFYEAEGENHASVVPTSLSKGLRFISYV”: the protein production entry is “not failed”.
The result for “MNVDILKQRAKAFDYVFDAIVVTDLQGFIIDWNKGSETLYGYSKEQAIGQPVNMLHVPGDTEHITSEVISAVENQGKWTGEIRMLHKDGHIGWIESMCVPIYGENYQMVGALGINRDITKRKKELEHHHHHH” reads “not failed”; that for “MNVRHISYFNQWHGALVTNMLAGVLLALALLPGAIAFSFIAGVSPTIGMLSTGLMMLVISLTGNRTLMVSAPSSGVSLVVAPLMSSHGMPAVILATLIMGIIQILMGICRINKLLDYIPTGVVIGFMNALGVLLFTSQLKNILNISNATYVIAVASFLIIWLAQRYIRFMPAPLIAIIILTICAWWLKPDIVYVHHLASLHIHVPMLSFPDAMYDMHIVGISSMYGVTMAIVAVVQTTLTARMMDAVTATKSDKNKETIGQGVANTIVALFGGYGGSALVGQSRFNATMGATSRVSTLITGAFLLISLFVFGDIIGQIPMAVLATVLITISLNTFDRRTISFIKVSPIKHGAIVVLTMLIILSTNNLAAGVVLVSLLYYLIQGFNKRKGRDI”, “failed”; that for “MNVRKFPFAMRAGVAGMLALAALLAGCGSLSGSEMSRRTDADIEVARQRQADEKAELTSPGTYLSLIRRMQEQGMYYASLAHIDAYVQRFGRTPDVLLLRADALRETDQPAAAEADYRAVVEATSALGAGTQGALLNANAWRGLGITAGRQGRFAEAVRRLQLAARGNPTDASTESDLGYALMRAGEVEQARVPLMQAAQLDAANPKIAGNLAIWLDVNDRKEAAAALTAHARLSEAARKAIDEDAARVRSAWRDRRVARDTAPQPVQRAVVANPALMPAAAAPRSSAPLAFQRGRLLDNLEAAQ”, “failed”.
For the sequence “MNVSNGDLIVEKIVANRKYHALKRQRNVLSWLLTLLMLVVYFGFIGLIAFNKAFLAVPLASGVTTRGIPIAIGVMLFAIIVTAVYVFFSNIVYDKLSRNILEDACK”, the protein production entry is “failed”.
Regarding “MNVVIVRYGEIGTKSRQTRSWFEKILMNNIREALVTEEVPYKEIFSRHGRIIVKTNSPKEAANVLVRVFGIVSISPAMEVEASLEKINRTALLMFRKKAKEVGKERPKFRVTARRITKEFPLDSLEIQAKVGEYILNNENCEVDLKNYDIEIGIEIMQGKAYIYTEKIKGWGGLPIGTEGRMIGILHDELSALAIFLMMKRGVEVIPVYIGKDDKNLEKVRSLWNLLKRYSYGSKGFLVVAESFDRVLKLIRDFGVKGVIKGLRPNDLNSEVSEITEDFKMFPVPVYYPLIALPEEYIKSVKERLGL”, the protein production entry is listed as “not failed”.
As to “MNVVRSSAYTGVATLAKLLAALVVVKLVAVYAGPQGVGRLGQFLNLMSVLAVLAGGGISAGIVKYVAQYRDDAPALARLLSAALWYAFCAACAMALLAMAFSGAIAERLLGDASYRPLMCVLAIAQLGIALLNYMLAVINGFMDVRRLAFVQVSGAVLSVALVAWLSGRAQLHGALLALVLSQVLWLLAAVPALRRSSYFQPAMWRMRFDAEMTRQLAAFSVMTLTSTLVPQLVAILVRDHLALQFGWEQVGYWQAVSRVSDAYLLFFTTAINVYYLPKLASLRGAVALGQELRGAYRYVMPAVIVMALGVYVCRDWVTLLLFDAQFAAAAPLYGPQLLGDVVKIAAFVLSYVMLAKAMTRLLVISECIFAASYLALVYLFTAQFGLIGAMYAFAANYVLYLLFNIVVVRRYLRRTA”, the protein production result was “failed”.
As for “MNVVVTGGRGSSGRWIVDRLVGPHDVTVLDRRLPDDEGHPAVEYQALDLTDAGGVFDTLTAIDPDAVVHWAAIPVAGNHPGVDLFQNNTLAAHNVLSAAGRVGADVVQGSSDGAYGFFFAEETPVPDELPITEKHARRPEDDYGLSKVVTEEIGKTIARRDGISVASIRPSWIQIPGEYPCRSEDYVDDLAAGAGNYWSYVDVRDVADLVEAALTADVAGHETFNCVGPDNALGRPLVELMRDHYGRVPDDCTVEGDAAAYSTAKATERLGWEPTRSWREAADVDVDVPTV”, the protein production entry is reported as “failed”.
“MNWPNMPPGDRRWLWIGLTLPLCLLNGWVLLQILDYFQSPLRIFIIANLVAFILGYPVRWLQRYPRLKLPYAVALVLLTTAIILAVIGLLVIPKLVDQIRTVLQLLPHLNALGDRHLESLDNLSNQWEIPTNFRAWGRELSNEFPNQIRSITNQLINLLIWTAGSLVEAGFIFIMTVYLLLRGQTFWDGIFRWLPIDWRHKVRQRLRHSFQNYYIGQATVAALLGVSLIISLSIFQVPLALLFGMFVGFMAFFPFGGGTSIVLISIIASFQSIWLGIKVLAIATVVDQVVENGLAPKLLGRVTGVHPVWILLSLMIGAKVAGLLGILVAIPIASFIRDMLNDFI”: the protein production result is “failed”.
For “MNWVAPIKDQETLKNFGETLKQVDYKYYIMFELGVGTGLQLQDILAFKNKDVTGKKEIEVTIGTRNMKNVFTVPEELQQIINEYTKGKDPEAYLILGHSSSNKPVSREQAYRVLRSAGHKIGLNSIGAQTMRKTYAWNYYKETGDIYHLQKLFNHASPSITYRFIGEKPNIEVFLKKMTPQENERSRYLLYLNDNGKKKLNKIIDILTGIRDNFDSPANNDAFYGKVDCLLQELEALMENYENTK”, the protein production result was “failed”.
For the sequence “MNYFIVEVSEQEVKREKEKARELRRSQWWKNRIARGICHYCGEIFPPEELTMDHLVPVVRGGKSTRGNVVPACKECNNRKKYLLPVEWEEYLDSLESEPSDGEGLEHHHHHH”, the protein production result is “not failed”.
In the case of “MNYLVLLIPVLFSFHQIFVRLGSREAETISGIYVSLLASTIIFIPSVANPTLDGMFLLYMSLAGVLHFFVARICFYHAISRIGANLSAPLSATRVFFAALLGIFVGEYLTLRVVVMSLLIFAGIVLISRPKGKADAFGVTLGILTGLFSALSSYFVKFGNAVDYNPLFAIFLGFALSTILMTPLAVRKDLSHTKFYLAAGVTVGIAHLLRYVVLKDVPVTVVEPITSSYPLFTLLLSAIFLREGEIFTLRSITGTLLILGGIYVYYA”, the protein production result is reported as “failed”.
Consider “MPADIIIHNGSLITFDEARPQAQALAIQGGMIAAVGSDAEILALAGPETRLIDAGGGTVLPGFIDSHVHLFGGSVELDCLSLYGVKGLDAMRAAIQPYAQANPDDALVFCVMADYDILGTGHTLTRHDLDSILADRPLAMFAPDHHTVWANTAALEATGLLQGGEVDAGSLIVLGEDGLANGELLEPGAYGPILGLTRHGGREMLGLTTGKDPEPPATPDQRARDKDVIARGLAHCAAQGITGLHLMDGNRYQLELLTELEAEGRLLCRCEVPFHMKGTDPVERMTAEAPAMRAAYRGDKVRCNHLKMFIDGVIESGTALMLRPYPGELGANDNTGDEVFTQEHFTACCVEADRLGFQIAVHAIGDAGVRRTIDAFEAARRANGTRDSRHRIEHIEVIHPDDIPRLAELDIVASLQPGHAPRGHVFPPGAVGQYLHPDQIVGAYAWQTIRETGARVVFSTDWPVIPVDVMPSLRAAIAPLDLGPDWPDQSQSLMDTLASYTRDNAWVEFNEDSKGRLKVGMAADIAVLSHDLTALAPDDITQAAAMVTIMDGAVTYQRPG”, for which the protein production entry is “failed”.
